Assays:
[1] = biological target: Acylpeptide hydrolase from Sulfolobus solfataricus (Sulfolobus solfataricus); test: enzyme inhibition kinetics (Lineweaver-Burk); APEHSs pre-incubated with the peptide 30 min at 80°C, 25 mM Tris-HCl pH 7.5, substrate acetyl-Leu-pNA; competitive inhibition
[2] = biological target: Acylpeptide hydrolase from Sulfolobus solfataricus (Sulfolobus solfataricus)

Chain of Acylpeptide hydrolase from Sulfolobus solfataricus (Sulfolobus solfataricus) (Q7LX61 entry or part of it): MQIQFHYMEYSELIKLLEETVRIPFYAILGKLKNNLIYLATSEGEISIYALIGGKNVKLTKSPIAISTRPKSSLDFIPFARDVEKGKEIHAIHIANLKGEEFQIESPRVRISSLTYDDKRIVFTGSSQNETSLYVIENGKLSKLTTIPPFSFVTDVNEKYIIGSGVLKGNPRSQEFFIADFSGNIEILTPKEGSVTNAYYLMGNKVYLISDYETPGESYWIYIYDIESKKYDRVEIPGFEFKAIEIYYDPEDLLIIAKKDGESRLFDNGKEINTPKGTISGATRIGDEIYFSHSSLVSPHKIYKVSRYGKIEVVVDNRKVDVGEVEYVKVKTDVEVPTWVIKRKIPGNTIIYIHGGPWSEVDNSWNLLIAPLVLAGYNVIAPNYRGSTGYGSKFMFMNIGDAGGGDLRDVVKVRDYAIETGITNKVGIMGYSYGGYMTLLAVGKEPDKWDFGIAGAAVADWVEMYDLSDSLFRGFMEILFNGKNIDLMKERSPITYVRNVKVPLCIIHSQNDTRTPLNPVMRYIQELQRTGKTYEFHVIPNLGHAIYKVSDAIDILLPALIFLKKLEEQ

Ki [1]: 1000 nM
IC50 of inhibition of APEHSs activity (substrate Ac-Leu-pNA) [2]: 9.8 µM
Binder: H-TILLEIKNINAD-NH2 [SsCEI 2]
